Patent publication US20240043505A1
Like-named read-outs stand apart in the source and are kept apart here.

Columns and labels:
Settings in all cases: remark: other sources report otherwise
A475V = molecular target: A475V
K417N = molecular target: K417N
N439K = molecular target: N439K
N501Y = molecular target: N501Y
Y453F = molecular target: Y453F
[1] = molecular target: T1, SARS-CoV-2 spike receptor-binding domain (RBD) (SARS-CoV-2), P0DTC2
[2] = molecular target: T1, SARS-CoV-2 spike receptor-binding …; remark: listed apart in the source
[3] = molecular target: T1, SARS-CoV-2 spike receptor-binding …; assay: SPR (Biacore 3000), RBD immobilised
[4] = molecular target: T1, SARS-CoV-2 spike receptor-binding …; assay: indirect ELISA on coated RBD ('ELISA affinity')
[5] = molecular target: T1, SARS-CoV-2 spike receptor-binding …; assay: ELISA; the sheet does not name the coated protein, the legend paragraph 51 says RBD
[6] = molecular target: T1, SARS-CoV-2 spike receptor-binding …; remark: listed apart in the source

Binder	binding affinity fold change relative to RBD WT (A475V) [fold]	binding affinity fold change relative to RBD WT (K417N) [fold]	binding affinity fold change relative to RBD WT (N439K) [fold]	binding affinity fold change relative to RBD WT (N501Y) [fold]	binding affinity fold change relative to RBD WT (Y453F) [fold]	EC50 (read off the curve) [1] [nM]	IC50 [2] [nM]	Kd [3] [pM]	koff [3] [s⁻¹]	kon [3] [M⁻¹ s⁻¹]	IC50 [4] [nM]	EC50 (read off the curve) [5] [nM]	EC50 (read off the curve) [6] [nM]
Nb21 (VHH) VHH: QVQLVESGGGLVQAGGSLRLSCAVSGLGAHRVGWFRRAPGKEREFVAAIGANGGNTNYLDSVKGRFTISRDNAKNTIYLQMNSLKPQDTAVYYCAARDIETAEYTYWGQGTQVTVSS	-1.31	-1.43	1.18	-2.83	1.04	1	0.42	< 1	< 1e-06	3.79e+06	0.3	5	
Nb17 (VHH) VHH: HVQLVESGGGLVQAGGSLRLSCAASGSIFSSNAMSWYRQAPGKQRELVASITSGGNADYADSVKGRFTISRDKNTVYPEMSSLKPADTAVYYCHAVGQEASAYAPRAYWGQGTQVTVSS	1.16	-1.2	1.33	1.5	1.61		0.69				0.45		1
